Values quoted from earlier work in publication PMC7663405.

Biological target: CD80 (Homo sapiens) (UniProt P33681)
UniProt P33681, sequence (P33681 35-242): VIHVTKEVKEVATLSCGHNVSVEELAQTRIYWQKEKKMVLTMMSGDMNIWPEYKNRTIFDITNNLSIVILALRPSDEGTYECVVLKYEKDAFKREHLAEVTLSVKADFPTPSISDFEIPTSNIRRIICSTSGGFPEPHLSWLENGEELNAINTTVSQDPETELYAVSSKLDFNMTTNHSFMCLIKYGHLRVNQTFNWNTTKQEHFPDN

Substance: PD-L1 (from UniProt Q9NZQ7)
- Kd: 1900 nM
